Assay results as given in patent US12018066.
Like-named read-outs stand apart in the source and are kept apart here.

Key:
[1] = target: SARS-CoV-2 spike protein receptor binding domain (RBD2) (SARS-CoV-2) (UniProt P0DTC2)
[2] = target: SARS-CoV-2 spike protein receptor binding domain (RBD2) (SARS-CoV-2) (UniProt P0DTC2); assay: SPR, immobilized antibody, RBD injected, 1:1 fit
[3] = target: SARS-CoV-2 spike protein receptor binding domain (RBD2) (SARS-CoV-2) (UniProt P0DTC2); assay: SPR sandwich binning, ligand F07; light (intermediate) cell
[4] = target: SARS-CoV-2 spike protein receptor binding domain (RBD2) (SARS-CoV-2) (UniProt P0DTC2); assay: SPR sandwich binning, ligand CR3022
[5] = target: SARS-CoV-2 spike protein receptor binding domain (RBD2) (SARS-CoV-2) (UniProt P0DTC2); assay: SPR sandwich binning, ligand E01
[6] = target: SARS-CoV-2 spike protein receptor binding domain (RBD2) (SARS-CoV-2) (UniProt P0DTC2); assay: SPR sandwich binning, ligand H01
[7] = target: SARS-CoV-2 spike protein receptor binding domain (RBD2) (SARS-CoV-2) (UniProt P0DTC2); assay: SPR sandwich binning, ligand B04
[8] = target: SARS-CoV-2 spike protein receptor binding domain (RBD2) (SARS-CoV-2) (UniProt P0DTC2); assay: SPR sandwich binning, ligand G07
[9] = target: SARS-CoV-2 spike protein receptor binding domain (RBD2) (SARS-CoV-2) (UniProt P0DTC2); assay: SPR sandwich binning, ligand S01
[10] = target: SARS-CoV-2 spike protein receptor binding domain (RBD2) (SARS-CoV-2) (UniProt P0DTC2); assay: SPR sandwich binning, ligand E08
[11] = target: SARS-CoV-2 spike protein receptor binding domain (RBD2) (SARS-CoV-2) (UniProt P0DTC2); assay: SPR sandwich binning, ligand H05
[12] = target: SARS-CoV-2 spike protein receptor binding domain (RBD2) (SARS-CoV-2) (UniProt P0DTC2); assay: SPR sandwich binning, ligand Anti-His

Substance: CR3022 (commercial anti-RBD2 antibody, reference IgG)
- Kd [1]: 114 nM
- Kd [2]: 110 nM
- normalized analyte binding to RBD2 held by the immobilized ligand [3]: 0.23
- normalized analyte binding to RBD2 held by the immobilized ligand [4]: -0.14
- normalized analyte binding to RBD2 held by the immobilized ligand [5]: 1.63
- normalized analyte binding to RBD2 held by the immobilized ligand [6]: -0.01
- normalized analyte binding to RBD2 held by the immobilized ligand [7]: 1.64
- normalized analyte binding to RBD2 held by the immobilized ligand [8]: 1.35
- normalized analyte binding to RBD2 held by the immobilized ligand [9]: 1.83
- normalized analyte binding to RBD2 held by the immobilized ligand [10]: -0.1
- normalized analyte binding to RBD2 held by the immobilized ligand [11]: -0.14
- normalized analyte binding to RBD2 held by the immobilized ligand [12]: 1.45
